Measured values reported in patent US20120230981A1 (RESEARCH CORPORATION TECHNOLOGIES, published 2012).

Tests used:
[1] = molecular target: T1, soluble, recombinant hFcRn (human, UniProt P55899 24-297; P61769 21-119, limits assumed, biotinylated in the yeast flow cytometry assays (biotin-soluble FcRn); site not stated); assay: competition, flow cytometry: IgG1 inhibits binding of soluble FcRn to yeast-displayed m01s at pH 6.0
T1 construct: also called rFcRn; soluble FcRn

[2] = molecular target: T1, soluble, recombinant hFcRn; assay: Biacore (SPR), HiswtCH2 at 75-1200 nM
Procedure: For reference, the WT CH2 sequence (without the HIS tag) is shown in SEQ ID NO: 1. “HiswtCH2” of FIG. 1 is the WT CH2 sequence with a His tag, e.g., a group of histidine residues in a row, e.g., 6 histidine residues. […] HiswtCH2 was tested at 75, 150, 300, 600, 1200 nM. The A curves (1A, 2A, 3A, 4A, 5A, and 6A) are binding curves; the B curves (1B, 2B, 3B, 4B, 5B, and 6B) are fitted curves.

Row | IC50 [1] [nM] | Kd [2] [nM] | koff [2] [s⁻¹] | kon [2] [M⁻¹ s⁻¹] | Molecule
1 | 629 |  |  |  | IgG1 (antibody)
2 |  | 90.8 | 0.00184 | 20300 | HiswtCH2 (wild type CH2 domain of human IgG1 with a His tag) (other, also called wild type (WT) CH2; not shown: His tag, 'e.g., 6 histidine residues') APELLGGPSVFLFPPKPKDTLMISRTPEVTCVVVDVSHEDPEVKFNWYVDGVEVHNAKTKPREEQYNSTYRVVSVLTVLHQDWLNGKEYKCKVSNKALPAPIEKTISKAKGQ
